Laboratory results published in article PMC8025756.
Like-named read-outs stand apart in the source and are kept apart here.

What was measured:
[1] = molecular target: two-chain factor VII-activating protease (tcFSAP) (human); experiment: enzyme inhibition kinetics
[2] = molecular target: two-chain factor VII-activating protease (tcFSAP) (human); experiment: SDS-stable complex formation, SDS-PAGE and Western blot
[3] = molecular target: two-chain factor VII-activating protease (tcFSAP) (human); experiment: enzyme inhibition kinetics; remark: listed apart in the source
[4] = molecular target: two-chain factor VII-activating protease (tcFSAP) (human); experiment: enzyme inhibition kinetics; remark: listed apart in the source
[5] = molecular target: two-chain factor VII-activating protease (tcFSAP) (human); experiment: enzyme inhibition kinetics; remark: listed apart in the source
[6] = molecular target: two-chain factor VII-activating protease (tcFSAP) (human); experiment: enzyme inhibition kinetics; remark: listed apart in the source

second-order inhibition rate constant Ka [1]: 443000 M⁻¹ s⁻¹ | stoichiometry N [2]: 1 | second-order inhibition rate constant Ka [3]: 623000 M⁻¹ s⁻¹ | second-order inhibition rate constant Ka [4]: 1.61e+06 M⁻¹ s⁻¹ | second-order inhibition rate constant Ka [5]: 338000 M⁻¹ s⁻¹ | second-order inhibition rate constant Ka [6]: 558000 M⁻¹ s⁻¹
Substance: recombinant human wild-type plasminogen activator inhibitor-1 (PAI-1) (from UniProt P05121 24-402) (natural protein)
